The target in this data set is T1, AaNusB (Aquifex aeolicus, UniProt O66530 1-148).
T1 sequence: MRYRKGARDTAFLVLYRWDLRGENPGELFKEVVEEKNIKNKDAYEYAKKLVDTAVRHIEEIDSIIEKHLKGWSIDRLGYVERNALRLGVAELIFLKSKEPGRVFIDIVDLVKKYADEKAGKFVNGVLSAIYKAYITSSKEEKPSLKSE
Put plainly: X-ray crystallography.

B1: AaBoxA 12-mer RNA self-duplex (supercoil-forming) (dsRNA)
RNA 1: GGCUCCUUGGCA
RNA 2: GGCUCCUUGGCA
For B1, the binding result was “binds”.
